This note sets out measurements from patent US20190201542A1 (AbbVie / Abbott, published 2019).

The assay has as its target T1, human DLL3 (human, UniProt Q9NYJ7 27-492, limits assumed).
T1 construct: also called hDLL3; DLL3 protein
T1 sequence: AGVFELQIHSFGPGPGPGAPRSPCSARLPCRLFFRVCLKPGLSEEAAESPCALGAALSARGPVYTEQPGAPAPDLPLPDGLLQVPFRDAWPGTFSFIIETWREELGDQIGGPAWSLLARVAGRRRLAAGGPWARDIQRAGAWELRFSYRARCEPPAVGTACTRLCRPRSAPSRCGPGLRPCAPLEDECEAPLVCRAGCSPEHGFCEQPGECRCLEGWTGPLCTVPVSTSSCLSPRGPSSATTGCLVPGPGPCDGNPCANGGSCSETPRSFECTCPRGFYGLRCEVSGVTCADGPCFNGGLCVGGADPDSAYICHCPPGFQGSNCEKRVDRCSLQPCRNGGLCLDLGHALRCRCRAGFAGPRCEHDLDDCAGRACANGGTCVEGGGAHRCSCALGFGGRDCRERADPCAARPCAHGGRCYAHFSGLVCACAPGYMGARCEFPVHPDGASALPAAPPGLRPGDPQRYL
Description: screen on immobilized hDLL3 or h293-hDLL3 cells. Summed up: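 Solid-phase ELISA on DLL3-His (0.5 μg/ml coating), developed with HRP anti-mouse IgG and TMB and read at OD 450, was one screen for supernatants of single-cell hybridomas from human DLL3-immunized mice taken after 10 days in culture. Flow-cytometry binding counted as positive only above the control.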

B1: SC16.133 (antibody, V domains shown)
VH: QVQLKESGPGLVAPSQSLSITCTVSGFSLTNYAVHWVRQSPGKGLEWLGVIWSDGSTDYNAAFISRLSISKDNSKSQVFFKMNSLQADDTAMYYCARKKGGWFPWFAYWGQGTLVTVSA
VL: SIVMTQTPKFLLVSAGDRVTITCKASQSVSNDVAWYQQKPGQSPKLLIYCASNRYTGVPDRFTGSGYGTDFTFTISTVQAEDLAVYFCQQDYSSPLTFGAGTKLELK
notes: murine mAb
For B1, the binding result was “binds”.

B2: SC16.11 (antibody, V domains shown)
VH: QIQLVQSGPELKKPGETVKISCKASGYTFTDYSMHWVKQAPGKGLKWMGWINTETVEPTYADDFMGRFAFSLETSASTAFLQINNLENEDTATYFCARFGSYAMDYWGQGTSVTVSS
VL: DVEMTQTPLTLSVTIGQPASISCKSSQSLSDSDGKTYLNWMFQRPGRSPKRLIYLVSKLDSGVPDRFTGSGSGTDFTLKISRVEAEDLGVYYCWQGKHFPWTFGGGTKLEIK
notes: murine mAb
On to B2, for which the binding result is “binds”.

B3: SC16.126 (antibody, V domains shown)
VH: QVQMKESGPGLVAPSQSLSITCTVSGSSLTNYGVHWVRQPPGKGLEWLGVIWAGGSTNYNSALMSRLSISKDNSKSQVFLKMNSLQTDDTAMYYCARDWEGWFAYWGQGTLVTVSA
VL: DIQMNQSPSSLSASLGDTITITCHASQNINVWLSWYQQKPGNIPKLLIYKASNLHTGVPSRFSGSGSGTGFTLTISSLQPEDIATYYCQQGQSYPFTFGSGTKLEIK
notes: murine mAb
As to B3, the binding result was “binds”.

B4: SC16.131 (antibody, V domains shown)
VH: QVQLKESGPGLVAPSQSLSITCTVSGFSLTNYGVHWVRQPPGKGLEWLGVIWAGGITNYNSALMSRLSISEDNSKSQVFLKMNSLQTDDTAMYYCARNLGPYAMDYWGQGTSVTVSS
VL: DIQMNQSPSSLSASLGDTITITCHVSQNINVWLSWYQQKPGNIPKLLIQKASNLHTGVPSRFSGSGSGTGFTLTISSLQPEDIATYYCQQGQSYPFTFGSGTKLEIK
notes: murine mAb
For B4, the binding result was “binds”.

B5: SC16.149 (antibody, V domains shown)
VH: QVQLKESGPGLVAPSQSLSITCAVSGFSLTSFGVHWVRQPPGKGLEWLGVIWAGGSTNYYSALMSRLSISIDNSKSQVFLKMNSLQTDDTAMYYCARDWEGWFAYWGQGTLVTVSA
VL: DIQMNQSPSSLSASLGDTITITCHASQNINVWLSWYQQKPGNIPKLLIYKASHLHTGVPSRLSGSGSGTGFTLTISSLQPEDIATYYCQQGQSYPFTFGSGTTLEIK
notes: murine mAb
In the case of B5, the binding result is “binds”.

B6: SC16.121 (antibody, V domains shown)
VH: EVQLVESGGGLVQPKGSLKLSCAASGFTFNTYAMNWVRQAPGKGLEWVARIRIKSNNYATYYADSVKDRFTISRDDSQNMLYLQMNNLKTEDTAVYYCVRQGYSYDWGPWFAYWGQGTLVTVSA
VL: QIVLTQSPAIMSASPGEKVTITCSASSSVSYMHWFQQKPGTSPKLWIYSTSNLASGVPARFSGSGSGTSYSLTISRMEAEDAATYYCQQRSSYPPTFGGGTKLEIK
notes: murine mAb
For the molecule B6, the binding result is listed as “binds”.

B7: SC16.134 (antibody, V domains shown)
VH: EVQLQQSGPDLVKPGASVKISCKASGYSFTGYYMHWVKQSHGKRLEWIGRVNPNNGGTNYNQKFKGKAILTVDKSSSTAYMELRSLTSEDSAVYYCARGSYDNAEGWGQGTLVTVSA
VL: DIVLTQSPASLAVSLGQRATISCKASQSVDHAGDSYMNWYQQKPGQPPKLLIYAASNLESGIPARFSGSGSGTDFTLNIHPVEEEDAATYYCQQSNEDPYTFGGGTKLEIK
notes: murine mAb
In the case of B7, the binding result is “binds”.

B8: SC16.122 (antibody, V domains shown)
VH: EVQLVESGGGLVKPGGSLKLSCAASGFTFSDYYMFWVRQTPEKRLEWVATISDGGSYTYFPDSVKGRFTISRDNAQNNLYLQMSSLKSEDTAMYYCARAGTLYAMDYWGQGTSVTVSS
VL: DIVMTQSQKFMSTSVGDRVSVTCKASQNVGTNVAWYQQKPGQSPKVLIYSASYRYSGVPDRFTGSGSGTDFTLTISNVQSEDLAEFFCQQYNSYPLTFGGGTKLEIK
notes: murine mAb
For the molecule B8, the binding result was “binds”.

B9: SC16.124 (antibody, V domains shown)
VH: EVQLQQSGPELVKPGASVKMSCKASGYTFTSYVMHWVKQKPGQGLEWIGYINPYNDGTKYNEKFKGKATLTSDKSSSTAYMELSSLTSEDSAVYYCARGALYYGNYLGYFDVWGAGTTVTVSS
VL: DIQMTQSPASQSASLGESVTITCLASQTIGTWLAWYQQKPGKSPQLLISAATSLADGVPSRFSGSGSGTKFSFKISSLQAEDFVSYYCQQLYSTPWTFGGGTKLEIK
notes: murine mAb
As for B9, the binding result is “binds”.

B10: SC16.132 (antibody, V domains shown)
VH: QVQLKESGPGLVAPSQSLSITCTVSGFSLTDYGVSWIRQPPGKGLEWLGVVWGGGSTYYNSALKSRLSITKDNSKSQVFLKMNSLQTDDTAMYYCAKQRGQYGAYWGQGTLVTVSA
VL: DIQMTQSPASQSASLGESVTITCLASQTIGTWLAWYQQKPGKSPQLLIYAATSLADGVPSRFSGSGSGTKFSFKISSLQAEDFVSYYCQQLYSTPWTFGGGTKLEIK
notes: murine mAb
In the case of B10, the binding result was “binds”.

B11: SC16.138 (antibody, V domains shown)
VH: QVQLKESGPGLVAPSQSLSITCTVSGFSLTDYGVSWIRQPPGKGLEWLGVVWGGGSTYYNSALKSRLSISKDNSKSQVFLKMNSLQTDDTAMYYCAKQRGQYGAYWGQGTLVTVSA
VL: DIQMTQSPASQSASLGESVTITCLASQTIGTWLAWYQQKPGKSPQLLIYSATSLADGVPSRFSGSGSGTKFSFKISSLQAEDFVSYYCQQLYSTPWTFGGGTKLEIK
notes: murine mAb
For B11, the binding result was “binds”.

B12: SC16.129 (antibody, V domains shown)
VH: QVQLKESGPGLVAPSQSLSITCTVSGFSLTDYGVSWIRQPPGKGLEWLGVIWGGGSTYYNSALKSRLSISKDNSKSQVFLELNSLQTDDTAIYYCAKHYGHYAAYWGQGTLVTVSA
VL: DIQMTQSPASQSASLGESVTITCLASQTIGTWLAWYQQKPGKSPQLLIYAATSLADGVPSRFSGSGSGTKFSFKISSLQAEDFVSYYCQQLYSTPYTFGGGTKLEIK
notes: murine mAb
With B12, the binding result is given as “binds”.

B13: SC16.123 (antibody, V domains shown)
VH: QVALKESGPGILQPSQTLSLTCSFSGFSLSTSGMGVGWIRQPSGKGLEWLAHIWWDDVKRYNPALKSRLTISKDTSSSQVFLKIASVDTADTATYYCARMEDYGSSSYFDFWGHGTTLTVSS
VL: QIVLTQSPAIMSASLGERVTMTCTASSSVSSSYLHWYQQKPGSSPKLWIYSTSNLASGVPARFSGSGSGTSYSLTISSMETEDAATYYCHQYHRSPFTFGSGTKLEIK
notes: murine mAb
B13: the binding result is on record as “binds”.

B14: SC16.135 (antibody, V domains shown)
VH: QVQLQQSGAELVRPGTSVKVSCKASGYAFTNYLIEWVKQRPGQGLEWIGVINPGSGGTNSNEKFKAKATLTADKSSSTAYMQLSSLTSADSAVYFCARSDYDYAFYAMDYWGQGTSVTVSS
VL: DIKMTQSPSSMYASLGERVTITCKASQDINRYLSWFQQKPGKSPKTLIYRANRLVDGVPSRFSGSGSGQDYSLTISSLEYEDMGIYYCLQYDEFPFTFGSGTKLEIK
notes: murine mAb
Consider B14, for which the binding result is “binds”.

B15: SC16.130 (antibody, V domains shown)
VH: EVQLQQSGPELVKPGASVKMSCKASGYTFTSYVMHWVKQKPGQGLEWIGYINPYNDGTEYNEKFKGKATLTSDKSSSTAYMELSSLTSEDSAVYYCARGVYDGYSYFDYWGQGTTLTVSS
VL: DIQLTQSPASLSASVGETVTITCRASGSIHNYLAWYQQKQGKSPQLLVYNAKTLVDGVPSRFSGSGSGTQYSLKINSLQPEDFGYYYCQHFWTTPWTFGGGTKLEIK
notes: murine mAb
As to B15, the binding result is recorded as “binds”.
